Laboratory results reported in patent US20060134087A1, “ITI-D1 Kunitz domain mutants as hNE inhibitors” (Dyax Corp., priority 1988, published 2006).

Molecular target: T1, agarose-immobilized hNE beads (Homo sapiens, UniProt P08246)
T1 sequence (P08246 30-267): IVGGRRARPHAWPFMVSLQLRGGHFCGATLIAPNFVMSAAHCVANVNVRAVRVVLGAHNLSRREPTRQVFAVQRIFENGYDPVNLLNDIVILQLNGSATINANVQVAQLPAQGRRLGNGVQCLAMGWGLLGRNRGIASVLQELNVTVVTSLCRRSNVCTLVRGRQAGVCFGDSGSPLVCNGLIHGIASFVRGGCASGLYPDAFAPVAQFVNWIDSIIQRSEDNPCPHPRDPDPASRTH
Experiment: pH fractionation of display phage on agarose-immobilized hNE beads
Type: binding
Set-up: Fraction of Input recovered at pH7.0: scale not given here
Settings: for Recovery Total: total fraction of input; for Fraction of Input bound / pH Elution Maximum: range of the affinity class
From the text: For the purpose of simultaneously assessing the affinity of a large number of different BPTI and ITI-D1 muteins, DNA sequences encoding the BPTI or ITI-D1 was incorporated into the genome of the bacteriophage M13. […] Alterations in the KuDom amino acid sequence were introduced. Each pure population of phage displaying a particular KuDom was characterized with regard to its interactions with immobilized hNE or hCG. Based on comparison to the pH elution profiles of phage displaying other KuDoms of known affinities for the particular protease, mutant KuDoms having high affinity for the target proteases were identified. Subsequently, the sequences of these mutant KuDoms were determined (typically by sequencing the corresponding DNA sequence).
To test if phage displaying the ITI-D1::III fusion protein interact strongly with the proteases human neutrophil elastase (hNE), aliquots of display phage were incubated with agarose-immobilized hNE beads (“hNE beads”). The beads were washed and bound phage eluted by pH fractionation as described in U.S. Pat. No. 5,223,409. The pHs used in the step gradient were 7.0, 6.0, 5.5, 5.0, 4.5, 4.0, 3.5, 3.0, 2.5, and 2.0. Following elution and neutralization, the various input, wash, and pH elution fractions were titered. Phage displaying ITI-D1 were compared to phage that display EpiNE-7.
To test if ITI-D1E7-display phage bind hNE beads, pH elution profiles were measured. Aliquots of EpiNE-7, MA-ITI-D1, and MA-ITI-D1E7 display phage were incubated with hNE beads for three hours at room temperature (RT). The beads were washed and phage were eluted as described in U.S. Pat. No. 5,223,409, except that only three pH elutions were performed. […] The pH elution profile of EpiNE-7 display phage is as described. MA-ITI-D1E7 phage show a broad elution maximum around pH 5. The total fraction of MA-ITI-D1E7 phage obtained on pH elution from hNE beads was about 40-fold less than that obtained using EpiNE-7 display phage.
We characterized the binding properties to hNE-beads of MA-BITI and MA-BITI-E7 display phage using the extended pH fractionation procedure described in U.S. Pat. No. 5,223,409.
The binding capacity of hNE-beads for display phage varies among preparations of beads and with age for each individual preparation of beads. Thus, it is difficult to directly compare absolute yields of phage from elutions performed at different times. For example, the fraction of MA-EpiNE7 display phage recovered from hNE-beads varies two-fold among the experiments shown in Tables 14, 16, and 17. However, the shapes of the pH elution profiles are similar. It is possible to correct somewhat for variations in binding capacity of hNE-beads by normalizing display phage yields to the total yield of MA-EpiNE7 phage recovered from the beads in a concurrent elution. When the data shown in Tables 14, 16, and 17 are so normalized, the recoveries of display phage, relative to recovered MA-EpiNE7, are shown in Table 3.
ITI-D1 derivative BITI-E7-1222 is BITI-E7 with the alteration A11T. ITI-D1 derivative BITI-E7-141 is BITI-E7 with the alterations E31Q and Q34V; phage that display the presence of these proteins are MA-BITI-E7-1222 and MA-BITI-E7-141. We determined the binding properties to hNE-beads of MA-BITI-E7-1222 and MA-BITI-E7-141 display phage using the extended pH fractionation protocol described previously. The results are in Tables 18 (for MA-BITI-E7 and MA-BITI-E7-1222) and 19 (for MA-EpiNE7 and MA-BITI-E7-141). The pH elution profiles for the MA-BITI-E7 and MA-BITI-E7-1222 phage are almost identical.
Total pfu applied to the beads are in column two. The fractions of this input pfu recovered in each pH fraction of the abbreviated pH elution protocol (pH 7.0, pH 3.5, and pH 2.0) are in the next three columns. […]

[1] = EE extended pH elution protocol
[2] = EE, sum of pH 3.0, 2.5, 2.0 samples
[3] = EE, sum of pH 6.0 to pH 3.5 samples
[4] = relative to parental MA-BITI-E7-141
[5] = AE abbreviated pH elution protocol

Substance	Fraction of Input recovered at pH7.0 [1]	Fraction of Input recovered at pH2.0 [2]	Fraction of Input recovered at pH3.5 [3]	Recovery Total (EE)	Fraction of Input bound [%]	pH Elution Maximum	reduction of display phage binding to hNE-beads [4]	fold greater affinity for hNE than BITI-E7	Fraction of Input recovered at pH2.0 [5]	Fraction of Input recovered at pH3.5 [5]	Fraction of Input recovered at pH7.0 [5]	Recovery Total (AE)	estimated affinity of free protein for hNE (estimated from pH elution profile of display phage)	effect of change on binding of display phage to hNE-beads [4]
MUT1619: BITI-E7-141 with ITI-D1 residues restored at 16 and 19; SEQ ID NO 020 (RPDFCQLGYSAGPCVGMFSRYFYNGTSMACQTFVYGGCMGNGNNFVTEKDCLQTCRGA; MUT1619)	0.82	0.84 ×10^−4	9.9 ×10^−4	12.0 ×10^−4	>0.1	≦4.0 pH								
AMINO1: ITI-D1 derivative carrying K1-E2, SEQ ID NO 022 (KEDFCQLGYSAGPCVAMFPRYFYNGTSMACETFQYGGCMGNGNNFVTEKDCLQTCRGA; AMINO1)	0.24	0.35 ×10^−4	2.3 ×10^−4	2.9 ×10^−4			at least ten fold							
BITI-E7-141: BITI-E7 with the alterations E31Q and Q34V; SEQ ID NO 017 (RPDFCQLGYSAGPCVAMFPRYFYNGTSMACQTFVYGGCMGNGNNFVTEKDCLQTCRGA; BITI-E7-141)	2.1	3.2 ×10^−4	21. ×10^−4	26.0 ×10^−4	>0.1	≦4.0 pH		approximately 100 fold	5.4 ×10^−4	18.0 ×10^−4	2.2	26.0 ×10^−4		
ITI-D1E7: ITI-D1 with EpiNE-7 sequence at positions 15-20, SEQ ID NO 021 (KEDSCQLGYSAGPCVAMFPRYFYNGTSMACETFQYGGCMGNGNNFVTEKDCLQTCRGA; ITI-D1E7)													in the nM range	
MUTQE: BITI-E7-141 with Q31E; SEQ ID NO 019 (RPDFCQLGYSAGPCVAMFPRYFYNGTSMACETFVYGGCMGNGNNFVTEKDCLQTCRGA; MUTQE)					>0.1	≦4.0 pH			5.3 ×10^−4	16. ×10^−4	1.2	22.0 ×10^−4		little effect
MUTT26A: BITI-E7-141 with T26A; SEQ ID NO 018 (RPDFCQLGYSAGPCVAMFPRYFYNGASMACQTFVYGGCMGNGNNFVTEKDCLQTCRGA; MUTT26A)	2.5	3.3 ×10^−4	19.0 ×10^−4	25.0 ×10^−4	>0.1	≦4.0 pH								little effect
MUTP1: ITI-D1 derivative asserting I15, G16, S19; SEQ ID NO 024 (RPDFCQLGYSAGPCIGMFSRYFYNGTSMACETFQYGGCMGNGNNFVTEKDCLQTCRGA; MUTP1)									1.2 ×10^−4	9.2 ×10^−4	1.8	12.0 ×10^−4		
